Positions count from the first letter of the chain named. Ends that are not written are not given here.
Legend:
[1] = molecular target: lettuce eukaryotic translation initiation factor 4E, eIF4E^0 (susceptible cultivar) (lettuce); experiment: other fluorescence titration; steady state decrease of eIF4E tryptophan intrinsic fluorescence upon titration by VPg or VPg peptide; 25 °C, 20 mM HEPES pH 7.5, 0.25 mM NaCl, 1 mM DTT
lettuce eIF4E = molecular target: T1, lettuce eIF4E (Lactuca sativa, UniProt A0A2J6L8Y7); experiment: Peptide affinity from eIF4E intrinsic fluorescence decay; assay type: binding
T1 construct: to obtain untagged full-length eIF4E and eIF4E∆(1–46); made in house; host or cells: E. coli BL21-AI
Text: (§1) For optical characteristics of the instrument, see [36].

[2] = molecular target: lettuce eIF4E^2 (resistant cultivar; A70P) (lettuce); experiment: other fluorescence titration; as a1, but eIF4E 0.5 µM pre-incubated with m7GTP 2 µM prior to titration by VPg; 25 °C
[3] = molecular target: lettuce eIF4E^1 (resistant cultivar; ∆(108–110)H and A186S) (lettuce); experiment: as above
[4] = molecular target: lettuce eukaryotic translation initiation factor 4E, eIF4E^0 (susceptible cultivar) (lettuce); experiment: as above
[5] = molecular target: lettuce eIF4E^2 (resistant cultivar; A70P) (lettuce); experiment: other fluorescence titration; steady state decrease of eIF4E tryptophan intrinsic fluorescence upon titration by VPg or VPg peptide; 25 °C, 20 mM HEPES pH 7.5, 0.25 mM NaCl, 1 mM DTT
[6] = molecular target: lettuce eIF4E^1 (resistant cultivar; ∆(108–110)H and A186S) (lettuce); experiment: as above
[7] = molecular target: lettuce eIF4E N-terminus-deleted form, eIF4E^0 [∆1–46] (lettuce); experiment: as above
[8] = test system: lettuce eIF4E (all forms); experiment: Comparison of VPg / m7GTP binding to eIF4E forms (competition, overall affinity)
Text: as §1

[9] = molecular target: VPg_(88–111)*, doubly labeled fluorescent derivative of VPg_(88–111) (lettuce mosaic virus (LMV strain AF199)); experiment: other fluorescence titration; steady state titration by eIF4E of 250 nM VPg_(88–111)*, read by the AEDANS to fluorescein resonance energy transfer within the peptide; AEDANS excited at 337 nm; simple bimolecular equilibrium model; 25 °C, 20 mM HEPES pH 7.5, 0.25 mM NaCl, 1 mM DTT
[10] = molecular target: lettuce eukaryotic translation initiation factor 4E, eIF4E^0 (susceptible cultivar) (lettuce); experiment: stopped-flow fluorescence kinetics; quenching of eIF4E tryptophan fluorescence after mixing 0.3 µM eIF4E with peptide (1 µM; 2.5, 5, 7.5 and 10 µM); excitation 283 nm; single exponential fit, kobs
eIF4E = molecular target: T2, eIF4E (Lactuca sativa, UniProt A0A2J6L8Y7); experiment: Stopped-flow kinetics, quenching of eIF4E tryptophan fluorescence; assay type: binding, lettuce
T2 construct: to obtain untagged full-length eIF4E and eIF4E∆(1–46); made in house; host or cells: E. coli BL21-AI
Experimental: We hypothesized that the 107–120 region could modulate the mechanism of association, the details of which cannot be grasped through equilibrium thermodynamics. Consequently, fast kinetics measurement were performed by stopped flow to compare VPg88–111 and VPg88–120 association with eIF4E (Figure 3).
(A) The quenching of eIF4E tryptophan fluorescence was monitored after mixing 0.3 µM eIF4E with 1 µM VPg88–111 (final concentration). The excitation wavelength was 283 nm. Inset, plots of 1/kobs versus 1/[peptide] at 2.5, 5, 7.5 and 10 µM peptide concentration. VPg88–111 open circles, VPg88–120, open triangles. (B) Stopped-flow traces of VPg88–111*–eIF4E complex formation acquired at 520 nm upon excitation at 480 nm. VPg88–111*: doubly labeled fluorescent derivative of VPg88–111.
The eIF4E tryptophan fluorescence decrease concomitant to association was monitored for several peptide concentrations (Figure S3). A single exponential model fitted satisfactorily with the experimental data allowing the determination of kobs, the apparent constant of the complex formation.
as §1

[11] = molecular target: T3, lettuce eukaryotic translation initiation factor 4E, eIF4E^0 (susceptible cultivar) (lettuce, UniProt A0A2J6L8Y7 1-235)
T3 chain: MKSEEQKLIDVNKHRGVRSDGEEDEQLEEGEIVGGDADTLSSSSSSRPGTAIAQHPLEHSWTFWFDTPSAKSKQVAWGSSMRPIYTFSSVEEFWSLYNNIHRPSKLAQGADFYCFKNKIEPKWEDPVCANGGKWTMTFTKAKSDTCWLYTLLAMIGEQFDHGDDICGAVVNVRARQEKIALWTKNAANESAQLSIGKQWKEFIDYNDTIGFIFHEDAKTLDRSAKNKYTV

VPg_(107–120) synthetic peptide
Kd [1]: 852 nM

LSGGEIESEHMRSG [VPg107–120]
Kd (lettuce eIF4E): 852 ± 57 nM

VFSDIGLVQDAFGKERLKLLSGGEIESEHMRSG [VPg88–120]
Kd (lettuce eIF4E): 67 ± 7 nM

VPg_(88–111) synthetic peptide
Kd [1]: 72 nM

LMV VPg from the non-resistance-breaking strain (LMV0) (natural protein)
KD with m7GTP [2]: 703 nM
KD with m7GTP [3]: 632 nM
KD with m7GTP [4]: 746 nM
Kd [5]: 288 nM
Kd [6]: 340 nM
Kd [7]: 276 nM

Cn1c[n+]([C@@H]2O[C@H](COP(=O)([O-])OP(=O)(O)OP(=O)(O)O)[C@@H](O)[C@H]2O)c2nc(N)[nH]c(=O)c21 [m7GTP]
competition between VPg and m7GTP [8]: compete for their binding to eIF4E

lettuce eukaryotic translation initiation factor 4E, eIF4E^0 (susceptible cultivar) (from UniProt A0A2J6L8Y7 1-235) (natural protein)
Kd [9]: 63 nM

VPg_(88–120) synthetic peptide
k2 (second step of the two-step model, conformational transition of the bound peptide) [10]: 33 s⁻¹
Kd [1]: 67 nM

VFSDIGLVQDAFGKERLKLLSGGE [VPg88–111]
affinity for eIF4E, in words (lettuce eIF4E; VPg88–111 versus VPg88–120): comparable affinities
dependence of 1/kobs or kobs on peptide concentration (eIF4E; 0.3 µM eIF4E, 2.5, 5, 7.5 and 10 µM peptide, single exponential fit): gave a straight line, featuring the pseudo first order nature of the association depending on ligand concentration
kinetic model of complex formation (eIF4E; stopped flow, eIF4E tryptophan quenching): one-step process

B1: LMV VPg from the non-resistance-breaking strain (LMV0) (natural protein)
chain: GKGKRQRQKLRYRQARDNKVGIEVYGDDATMEHYFGAAYTEKGKKSGKTKGMGTKNRRFVNMYGYNPEDFSFIRFLDPLTGKTMDEQVFSDISLVQDAFSKERLKLLSEGEIESEHMRNGIRAYLVKNLTTAALEIDMTPHNSCQLGAKTNNIAGYVDREYELRQTGEARVVAPALIPKDNPITDEDIPVKHE
Kd [11]: 202 nM

B2: whole VPg from LMV-AF199 strain (natural protein)
chain: B1 chain with R58K, S93G, S100G, E109G, N119S, A148I, Y156F
Kd [11]: 82 nM

Source: article PMC7460627 (International Journal of Molecular Sciences, 2020)
